{"source": "patent US6660837B1", "about": "“Modified protein derived from protein kinase N” (Kirin Beer Kabushiki Kaisha, priority 1995, dated 2003)", "key": {"[1]": {"molecular_target": "T1, in vitro translated PKNN2 (Homo sapiens, UniProt Q16512)", "T1 construct": "made in house; host or cells: in vitro translation in rabbit reticulocyte lysate (Promega)", "T1 sequence (Q16512 1-474)": "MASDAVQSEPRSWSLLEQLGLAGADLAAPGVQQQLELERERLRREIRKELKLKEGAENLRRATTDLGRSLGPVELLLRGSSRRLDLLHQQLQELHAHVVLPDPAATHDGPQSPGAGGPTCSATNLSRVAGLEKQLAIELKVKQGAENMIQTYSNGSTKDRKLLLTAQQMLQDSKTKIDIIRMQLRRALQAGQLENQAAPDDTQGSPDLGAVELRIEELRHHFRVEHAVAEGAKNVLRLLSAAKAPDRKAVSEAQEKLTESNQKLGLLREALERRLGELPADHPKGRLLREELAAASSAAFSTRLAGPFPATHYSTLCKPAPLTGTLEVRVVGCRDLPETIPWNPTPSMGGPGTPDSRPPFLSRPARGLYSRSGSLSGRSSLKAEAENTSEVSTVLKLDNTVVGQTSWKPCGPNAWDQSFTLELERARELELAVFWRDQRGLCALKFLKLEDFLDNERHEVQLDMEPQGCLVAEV", "assay": "In vitro binding of GST-HuActSkl fragments to PKNN2", "conditions": "resistant to 0.5% Triton X-100/0.5 M NaCl wash", "description": "In vitro transcription for the N-terminal region of PKN (the amino acid sequence 1-474, this region being designated as PKNN2 (Example 8)) was performed as described in Example 8. For in vitro translation, cRNAs were translated in rabbit reticulocyte lysate (Promega) in the presence of [^35S] methionine as described in Example 8.\nFor in vitro binding experiment, 2 μl of in vitro translated PKNN2 was mixed with 5 μg of each GST-α-actinin fusion protein or with 25 μg of GST alone in 400 μl of GST binding buffer (20 mM Tris/HCl at pH 7.5, 0.5 mM DTT, 150 mM NaCl, 0.05% Triton-X100, 1 mM EDTA, 1 μg/ml leupeptin) and incubated for 1 hr at 4° C. After addition of 25 μl of glutathione-Sepharose 4B pretreated with 10 mg/ml of E. coli extract to block nonspecific binding, the binding reaction was continued for additional 30 min at 4° C. The glutathione-Sepharose 4B was then washed four times in GST washing buffer (20 mM Tris/HCl at pH 7.5, 0.5 mM DTT, 1 mM EDTA, 1 μg/ml leupeptin) containing 0.5 M NaCl and 0.5% Triton X-100, and further washed with GST washing buffer. Bound proteins were eluted with GST elution buffer (100 mM Tris/HCl at pH 7.5, 10 mM glutathione, 120 mM NaCl, 1 mM EDTA, 0.5 mM DTT, 1 μg/ml leupeptin) and were subjected to SDS-PAGE. The binding was visualized and quantitated by an imaging analyzer (FUJI BAS1000)."}, "[2]": {"molecular_target": "T2, purified PKN from rat testis (Rattus norvegicus, UniProt Q63433)", "T2 construct": "The purified PKN (1 ng) from rat testis cytosol; from tissue; host or cells: rat testis (cytosol / soluble fraction)", "assay": "Phosphorylation of native NF by PKN", "assay_type": "biochemical", "conditions": "native bovine NF, with arachidonic acid; estimated by image quant", "description": "Native NFs were prepared from bovine spinal cords according to a method described in Hisanaga, S. & Hirokawa, N., J. Mol. Biol. 202, 297-305 (1988). Kinase assay was carried out according to the following method.\n(§1) Soluble cytosolic extract of spinal cord or purified NF proteins were boiled for 5 min to destroy endogenous protein kinase activity prior to their use as phosphate acceptors. The phosphorylation of NF preparations was carried out at 30° C. in an assay mixture containing 20 mM Tris/HCl at pH 7.5, 8 mM MgCl2, 100 μM ATP, 185 kBq of [γ-^32P]ATP, each subunit of NF, 20 ng/ml of purified PKN from rat testis, and with/without 40 μM arachidonic acid as indicated in each experiment. Reactions were terminated after various times by the addition of an equal volume of Laemli's sample buffer, and separation was performed on 7% SDS-PAGE. The gels were dried under vacuum and exposure to BAS1000 bio-imaging analyzer. Dephosphorylation of NF proteins was conducted with calf intestine alkaline phosphatase according to a method described in Carden, M. J. et al., J. Biol. Chem. 260, 9805-9817 (1985) and terminated after boiling for 5 min."}, "[3]": {"molecular_target": "T3, PKN (Rattus norvegicus, UniProt Q63433)", "T3 construct": "The purified PKN (1 ng) from rat testis cytosol; from tissue; host or cells: rat testis (cytosol / soluble fraction)", "assay": "Phosphorylation of recombinant GST-NF domains by PKN", "assay_type": "biochemical", "conditions": "GST-head-rod domain of each NF subunit", "description": "as §1\n(2) Phosphorylation of Recombinant NF by PKN To identify the region containing the phosphorylation site of NF by PKN, GST-head-rod and -tail domain of each subunit of NFs were bacterially synthesized (Example 8), and subjected to in vitro phosphorylation assay in the same manner as described above. […] The GST-tail domain of each subunit was not labeled at all. PKN also phosphorylated the GST-head-rod domain of vimentin (data not shown)."}, "[4]": {"molecular_target": "T4, RhoA^Val14 CLVL^− (Homo sapiens, UniProt P61586, G14V)", "T4 construct": "expressed in transfected cells; host or cells: yeast strain L40", "T4 sequence (P61586 1-189 G14V)": "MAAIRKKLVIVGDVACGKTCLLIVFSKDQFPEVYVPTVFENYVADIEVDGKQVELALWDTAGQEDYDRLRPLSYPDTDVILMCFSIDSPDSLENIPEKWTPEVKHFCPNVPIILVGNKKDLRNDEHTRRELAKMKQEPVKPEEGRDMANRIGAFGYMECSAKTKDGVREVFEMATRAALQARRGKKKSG", "assay": "Yeast two-hybrid, truncated PKN with RhoA^Val14CLVL^−", "assay_type": "binding", "conditions": "yeast L40", "source_text": "The cDNA fragments encoding various length of human PKN were inserted into the vector pBTM116 (Example 7) in frame with the upstream LexA DNA-binding domain sequences or the vector pVP16 (Example 7) in frame with the upstream VP16 transcription activation domain sequences. The cDNA fragments encoding human RhoA, RhoA^Val14, and RhoA^Ala37 were obtained by digesting pGEX-RhoA, pGEX-RhoA^Val14, and pGEX-RhoA^Ala37 (Example 1) with restriction enzymes, respectively, then cloned into pBTM116 and pVP16.\nThe expression plasmids were transfected into yeast L40 cells and plated on semi-solid media lacking tryptophan and leucine. Interaction was examined using a filter lift assay for the β-galactosidase activity in the same manner as in Example 6. […]"}}}
{"molecule": "HuActSkl (423-653): human skeletal muscle type α-actinin fragment, GST fusion (protein, left off: a dimerising Fc or GST, human skeletal muscle type α-actinin fragment, GST fusion) ILLQKDYESASLTEVRALLRKHEAFESDLAAHQDRVEQIAAIAQELNELDYHDAVNVNDRCQKICDQWDRLGTLTQKRREALERMEKLLETIDQLHLEFAKRAAPFNNWMEGAMEDLQDMFIVHSIEEIQSLITAHEQFKATLPEADGERQSIMAIQNEVEKVIQSYNIRISSSNPYSTVTMDELRTKWDKVKQLVPIRDQSLQEELARQHANERLRRQFAAQANAIGPWI", "values": [{"measurement": "binding of in vitro translated PKNN2 to the fragment", "setting": "[1]", "value": "strongly bound"}]}
{"molecule": "HuActSkl (486-607): human skeletal muscle type α-actinin fragment, spectrin-like repeat 3, GST fusion (protein, UniProt P35609 486-607, looked up, fragment, GST fusion, human skeletal muscle type α-actinin fragment, spectrin-like repeat 3, GST fusion) ICDQWDRLGTLTQKRREALERMEKLLETIDQLHLEFAKRAAPFNNWMEGAMEDLQDMFIVHSIEEIQSLITAHEQFKATLPEADGERQSIMAIQNEVEKVIQSYNIRISSSNPYSTVTMDEL", "values": [{"measurement": "binding of in vitro translated PKNN2 to the fragment", "setting": "[1]", "value": "strongly bound"}]}
{"molecule": "HuActSkl (604-719): human skeletal muscle type α-actinin fragment, GST fusion (protein, left off: a dimerising Fc or GST, human skeletal muscle type α-actinin fragment, GST fusion) MDELRTKWDKVKQLVPIRDQSLQEELARQHANERLRRQFAAQANAIGPWIQNKMEEIARSSIQITGALEDQMNQLKQYEHNIINYKNNIDKLEGDHQLIQEALVFDNKHTNYTMEH", "values": [{"measurement": "binding of in vitro translated PKNN2 to the fragment", "setting": "[1]", "value": "not"}]}
{"molecule": "NFM: neurofilament subunit M; native bovine in b342, GST-head-rod domain fusion in b344 (protein, UniProt O77788 2-926, looked up) Neurofilament medium …: SYTLDSLGNPSAYRRVTETRSSFSRISGSPSSGFRSQSWSRGSPSTVSSSYKRSALAPRLTYSSAMLSSAESSLDFSQSSSLLDGGSGPGGDYKLSRSNEKEQIQGLNDRFAGYIEKVHYLEQQNKEIEAEIQALRQKQASHAQLGDAYDQEIRELRATLEMVNHEKAQVQLDSDHLEEDIHRLKERFEEEARLRDDTEAAIRALRKDIEESSLVKVELDKKVQSLQDEVAFLRSNHEEEVADLLAQIQASHITVERKDYLKTDISTALKEIRSQLESHSDQNMHQAEEWFKCRYAKLTEAAEQNKEAIRSAKEEIAEYRRQLQSKSIELESVRGTKESLERQLSDIEERHNHDLSSYQDTIQQLENELRGTKWEMARHLREYQDLLNVKMALDIEIAAYRKLLEGEETRFSTFAGSITGPLYTHRQPSIAISSKIQKTKVEAPKLKVQHKFVEEIIEETKVEDEKSEMEEALTAITEELAVSVKEEVKEEEAEEKEEKEEAEEEVVAAKKSPVKATAPELKEEEGEKEEEEGQEEEEEEEEAAKSDQAEEGGSEKEGSSEKEEGEQEEEGETEAEGEGEEAAAEAKEEKKMEEKAEEVAPKEELAAEAKVEKPEKAKSPVAKSPTTKSPTAKSPEAKSPEAKSPTAKSPTAKSPVAKSPTAKSPEAKSPEAKSPTAKSPTAKSPAAKSPAPKSPVEEVKPKAEAGAEKGEQKEKVEEEKKEAKESPKEEKAEKKEEKPKDVPEKKKAESPVKAESPVKEEVPAKPVKVSPEKEAKEEEKPQEKEKEKEKVEEVGGKEEGGLKESRKEDIAINGEVEGKEEEQETKEKGSGGEEEKGVVTNGLDVSPGDEKKGGDKSEEKVVVTKMVEKITSEGGDGATKYITKSVTVTQKVEEHEETFEEKLVSTKKVEKVTSHAIVKEVTQSD", "values": [{"measurement": "extent of maximal phosphorylation by PKN per mol subunit of protein", "setting": "[2]", "value": "about 6 mol/mol"}, {"measurement": "relative 32P incorporation into GST-head-rod domain (ratio NFH:NFM:NFL)", "setting": "[3]", "value": 10}]}
{"molecule": "HuActSkl (653-837): human skeletal muscle type α-actinin fragment, GST fusion (protein, left off: a dimerising Fc or GST, human skeletal muscle type α-actinin fragment, GST fusion) IQNKMEEIARSSIQITGALEDQMNQLKQYEHNIINYKNNIDKLEGDHQLIQEALVFDNKHTNYTMEHIRVGWELLLTTIARTINEVETQILTRDAKGITQEQMNEFRASFNHFDRRKNGLMDHEDFRACLISMGYDLGEAEFARIMTLVDPNGQGTVTFQSFIDFMTRETADTDTAEQVIASFRI", "values": [{"measurement": "binding of in vitro translated PKNN2 to the fragment", "setting": "[1]", "value": "strongly bound"}]}
{"molecule": "NFL: neurofilament subunit L; native bovine in b342, GST-head-rod domain fusion in b344 (protein, UniProt P02548 2-555, looked up) Neurofilament light …: SSFSYEPYYSTSYKRRYVETPRVHISSVRSGYSTARSAYSSYSAPVSSSLSVRRSYSSSSGSLMPSLESLDLSQVAAISNDLKSIRTQEKAQLQDLNDRFASFIERVHELEQQNKVLEAELLVLRQKHSEPSRFRALYEQEIRDLRLAAEDATNEKQALQGEREGLEETLRNLQARYEEEVLSREDAEGRLMEARKGADEAALARAELEKRIDSLMDEIAFLKKVHEEEIAELQAQIQYAQISVEMDVSSKPDLSAALKDIRAQYEKLAAKNMQNAEEWFKSRFTVLTESAAKNTDAVRAAKDEVSESRRLLKAKTLEIEACRGMNEALEKQLQELEDKQNADISAMQDTINKLENELRTTKSEMARYLKEYQDLLNVKMALDIEIAAYRKLLEGEETRLSFTSVGSLTTGYTQSSQVFGRSAYGGLQTSSYLMSARSFPSYYTSHVQEEQIEVEETIEAAKAEEAKDEPPSEGEAEEEEKEKEEAEAEAEAEAEAEAEEEEGAQEEEAAKEDAEEAKEEEGGEGEEAEETKEAEEEEKKDEGAGEEQATKKKD", "values": [{"measurement": "extent of maximal phosphorylation by PKN per mol subunit of protein", "setting": "[2]", "value": "about 1 mol/mol"}, {"measurement": "relative 32P incorporation into GST-head-rod domain (ratio NFH:NFM:NFL)", "setting": "[3]", "value": 2}]}
{"molecule": "amino acid sequence 3-135: truncated human PKN, amino acid sequence 3-135 in SEQ ID NO: 1, two-hybrid fusion (protein, UniProt Q16512 3-135, looked up, fragment, two-hybrid fusion) SDAVQSEPRSWSLLEQLGLAGADLAAPGVQQQLELERERLRREIRKELKLKEGAENLRRATTDLGRSLGPVELLLRGSSRRLDLLHQQLQELHAHVVLPDPAATHDGPQSPGAGGPTCSATNLSRVAGLEKQL", "values": [{"measurement": "interaction with RhoA^Val14 CLVL^− (β-galactosidase filter assay)", "setting": "[4]", "value": "interacted"}]}
